This series has as its system T1, CC(C)=CCC/C(C)=C/CC/C(C)=C/CO[P@@](=O)(O)OP(=O)(O)O.
T1 construct: This enzyme preparation was used for the measurement of enzyme characteristics such as molecular weight and Km; from tissue; host or cells: young leaves of greenhouse-grown A. annua
Nature of the series: Enzyme kinetics of Mono-Q purified amorphadiene synthase in the [3H]-FPP assay. The class given is biochemical, A. annua. The note with it: other: 5- and 10-fold diluted Mono-Q eluted enzyme preparation, [3H]-FPP 0.25–100 μM, 30 min at 30° C. Here is the method:
During enzyme isolation and preparation of the assays, all operations were carried out on ice or at 4° C. Ten grams of frozen young leaves from greenhouse-grown A. annua were ground in a pre-chilled mortar and pestle in 40 ml of pre-chilled buffer containing 25 mM MES (pH 5.5), 20% (v/v) glycerol, 25 mM sodium ascorbate, 25 mM NaHSO3, 10 mM MgCl2 and 5 mM DTT (buffer A) slurried with 1 g polyvinylpolypyrrolidone (PVPP) and a spatula tip of purified sea sand. Ten grams of polystyrene resin (Amberlite XAD-4, Serva) were added and the slurry was stirred carefully for 10 min and then filtered through cheesecloth. The filtrate was centrifuged at 20,000 g for 20 min (pellet discarded), and then at 100,000 g for 90 min. […]
The remainder of the supernatant was added to 12.5 g DEAE anion exchanger (Whatman DE-52), which had been rinsed several times with buffer A, and stirred carefully for 10 min. […] The molecular weight was determined using size-exclusion chromatography. 200 μl of the Mono-Q eluent was loaded on a Superdex 75 (H/R10/30, Pharmacia Biotech) and eluted in the same buffer as used for Mono-Q. Enzyme activities in 0.5 ml fractions were determined as described for Mono-Q, but using undiluted eluent. […] Enzyme-kinetics were determined using 5- and 10-fold diluted Mono-Q eluted enzyme preparation and [^3H]-FPP concentrations ranging from 0.25–100 μM. […]

Sequence of amorphadiene synthase (Artemisia annua) (chain, as listed by the source): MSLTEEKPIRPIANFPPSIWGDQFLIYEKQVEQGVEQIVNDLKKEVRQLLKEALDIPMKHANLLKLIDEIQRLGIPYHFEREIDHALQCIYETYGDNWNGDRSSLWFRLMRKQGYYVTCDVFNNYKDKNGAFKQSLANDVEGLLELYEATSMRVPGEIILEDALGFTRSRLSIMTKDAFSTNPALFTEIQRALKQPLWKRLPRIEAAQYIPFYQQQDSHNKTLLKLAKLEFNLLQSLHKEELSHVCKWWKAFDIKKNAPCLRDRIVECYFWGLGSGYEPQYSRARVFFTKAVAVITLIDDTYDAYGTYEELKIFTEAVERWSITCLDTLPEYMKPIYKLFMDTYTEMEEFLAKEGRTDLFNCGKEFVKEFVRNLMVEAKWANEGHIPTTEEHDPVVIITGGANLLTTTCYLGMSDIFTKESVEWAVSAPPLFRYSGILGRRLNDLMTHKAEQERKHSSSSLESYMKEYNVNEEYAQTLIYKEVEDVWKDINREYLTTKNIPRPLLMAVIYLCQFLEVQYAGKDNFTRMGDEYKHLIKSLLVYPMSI

For amorphadiene synthase (Artemisia annua), the Km was 0.6 µM.

Source of the values: US7091027B1, “Transgenic amorpha-4,11-diene synthesis” (GenoClipp Biotechnology B.V., priority 1998, dated 2006).
